From patent US11857609B2, “Ocular delivery of cell permeant therapeutics for the treatment of retinal edema” (The Trustees of Columbia University in the City of New York, dated 2024)

How the values were obtained:
[1] = molecular target: T1, activated (cleaved) caspase-9 from mouse retina (mouse, UniProt Q8C3Q9); test: co-immunoprecipitation from mouse retina lysates after RVO and Pen1-XBIR3: anti-His IP, western blot for clCasp9, 4 h
Text: (§1) To show target engagement, after RVO, mice were given Penl-XBIR3 and retinas were harvested and immunoprecipitated with anti-His followed by western blot for clCasp9 (FIG. 5, right panel).

[2] = molecular target: T1, activated (cleaved) caspase-9 from …; test: co-immunoprecipitation from mouse retina lysates after RVO and Pen1-XBIR3: anti-His IP, western blot for clCasp9, 24 h
Text: as §1

B1: Penetratin1-XBIR3 conjugate (other)
chain 1: CRQIKIWFQNRRMKWKK
chain 2: MGSSHHHHHHSSGLVPRGSHMSTNTCLPRNPSMADYEARIFTFGTWIYSVNKEQLARAGFYTDWALGEGDKVKCFHCGGGLRPSEDPWEQHARWYPGCRYLLEQRGQEYINNIHLTHS
modifications: N-terminal C(NPys) as printed; linked to XBIR3 by a disulfide bond (-s-s-); linked to Penetratin1 by a disulfide bond
In the case of B1, the “fold increase in binding” value [1] is reported as 21 fold and the “fold increase in binding” value [2] is reported as 45 fold.
